The results in this text go back to paper PMC7088233.

The target of experiment [1] is recombinant glycosylated HIV-1 IIIB gp120 (baculovirus) (HIV-1 IIIB) (UniProt P04578).
Experiment [2] shares this target. Kind of experiment: SPR. In general terms: SPR reads the build-up and loss of mass on a sensor chip optically.

Take “His-tagged recombinant KAA-1 (Kappaphycus alvarezii agglutinin 1) (natural protein)”: in experiment [1], the IC50 of neutralization of HIV-1 (derived from pNL4-3) in Jurkat cells stood at 12.9 nM.

As to “recombinant KAA-1 after removal of the His tag by thrombin (natural protein)”, in experiment [2], the Ka turned out to be 1.61e+09 M⁻¹, the Kd turned out to be 0.622 nM and the off-rate (koff) turned out to be 0.000529 s⁻¹. On to “native KAA-1 lectin from Kappaphycus alvarezii (natural protein)”, for which the IC50 of neutralization of HIV-1 (derived from pNL4-3) in Jurkat cells in experiment [1] worked out at 9.2 nM. Same read-out and setting: the value for “native KAA-2 lectin from Kappaphycus alvarezii (natural protein)” was 7.3 nM.

Usually Kd stands for the concentration at which binding is half-saturated. By koff is commonly meant the first-order rate constant of dissociation.
